Reference: patent publication US20240279318A1 (NANJING LEGEND BIOTECH, published 2024)
Residue numbers refer to the chain shown, from its start.

B1: LY93T (scFv)
scFv: QSALTQPRSVSGSPGQSVTISCAGTSSDVGSENYVSWYQQHPGKAPKLMIYQVNKRASGVPDRFSGSKSGNTASLTISGLQAEDEADYYCASTRSSDHNIVFGGGTKLTVLGGGGSGGGGSGGGGSEVQLVESGGGLVQPGGSLRLSCAASGFTFSSYAMSWVRQAPGKGLEWVSTINSGTGSPYYADSVKGRFTISRDNSKNTLYLQMNSLRAEDTAVYYCAKNFFDGSWFLGPPAMDYWGQGTLVTVSSHHHHHH
notes: AS170036 VL1VH1 scFv mutein
B2: LE32I (scFv)
scFv: B1 scFv with E32I, T93Y
notes: AS170036 VL1VH1 scFv mutein
B3: LD97Y (scFv)
scFv: B1 scFv with T93Y, D97Y
notes: AS170036 VL1VH1 scFv mutein
B4: LE32T (scFv)
scFv: B1 scFv with E32T, T93Y
notes: AS170036 VL1VH1 scFv mutein
B5: LY34P (scFv)
scFv: B1 scFv with Y34P, T93Y
notes: AS170036 VL1VH1 scFv mutein
B6: LY34E (scFv)
scFv: B1 scFv with Y34E, T93Y
notes: AS170036 VL1VH1 scFv mutein
B7: LY34T (scFv)
scFv: B1 scFv with Y34T, T93Y
notes: AS170036 VL1VH1 scFv mutein
B8: LE32M (scFv)
scFv: B1 scFv with E32M, T93Y
notes: AS170036 VL1VH1 scFv mutein
B9: LY93H (scFv)
scFv: B1 scFv with T93H
notes: AS170036 VL1VH1 scFv mutein
B10: LD97W (scFv)
scFv: B1 scFv with T93Y, D97W
notes: AS170036 VL1VH1 scFv mutein
B11: LE32V (scFv)
scFv: B1 scFv with E32V, T93Y
notes: AS170036 VL1VH1 scFv mutein
B12: LY34F (scFv)
scFv: B1 scFv with Y34F, T93Y
notes: AS170036 VL1VH1 scFv mutein
B13: LY34V (scFv)
scFv: B1 scFv with Y34V, T93Y
notes: AS170036 VL1VH1 scFv mutein
B14: LD97L (scFv)
scFv: B1 scFv with T93Y, D97L
notes: AS170036 VL1VH1 scFv mutein
B15: LE32N (scFv)
scFv: B1 scFv with E32N, T93Y
notes: AS170036 VL1VH1 scFv mutein
B16: LY93D (scFv)
scFv: B1 scFv with T93D
notes: AS170036 VL1VH1 scFv mutein
B17: LY34M (scFv)
scFv: B1 scFv with Y34M, T93Y
notes: AS170036 VL1VH1 scFv mutein
B18: LD97Q (scFv)
scFv: B1 scFv with T93Y, D97Q
notes: AS170036 VL1VH1 scFv mutein
B19: LD97I (scFv)
scFv: B1 scFv with T93Y, D97I
notes: AS170036 VL1VH1 scFv mutein
B20: LY34G (scFv)
scFv: B1 scFv with Y34G, T93Y
notes: AS170036 VL1VH1 scFv mutein
B21: LD97P (scFv)
scFv: B1 scFv with T93Y, D97P
notes: AS170036 VL1VH1 scFv mutein
B22: LY34D (scFv)
scFv: B1 scFv with Y34D, T93Y
notes: AS170036 VL1VH1 scFv mutein
B23: LD97M (scFv)
scFv: B1 scFv with T93Y, D97M
notes: AS170036 VL1VH1 scFv mutein
B24: LH98K (scFv)
scFv: B1 scFv with T93Y, H98K
notes: AS170036 VL1VH1 scFv mutein
B25: LE32L (scFv)
scFv: B1 scFv with E32L, T93Y
notes: AS170036 VL1VH1 scFv mutein
B26: LD97E (scFv)
scFv: B1 scFv with T93Y, D97E
notes: AS170036 VL1VH1 scFv mutein
B27: LY34L (scFv)
scFv: B1 scFv with Y34L, T93Y
notes: AS170036 VL1VH1 scFv mutein
B28: LY34A (scFv)
scFv: B1 scFv with Y34A, T93Y
notes: AS170036 VL1VH1 scFv mutein
B29: LY34S (scFv)
scFv: B1 scFv with Y34S, T93Y
notes: AS170036 VL1VH1 scFv mutein
B30: LH98D (scFv)
scFv: B1 scFv with T93Y, H98D
notes: AS170036 VL1VH1 scFv mutein
B31: LY93N (scFv)
scFv: B1 scFv with T93N
notes: AS170036 VL1VH1 scFv mutein
B32: LD97V (scFv)
scFv: B1 scFv with T93Y, D97V
notes: AS170036 VL1VH1 scFv mutein
B33: LE32H (scFv)
scFv: B1 scFv with E32H, T93Y
notes: AS170036 VL1VH1 scFv mutein
B34: LY34I (scFv)
scFv: B1 scFv with Y34I, T93Y
notes: AS170036 VL1VH1 scFv mutein
B35: LE32P (scFv)
scFv: B1 scFv with E32P, T93Y
notes: AS170036 VL1VH1 scFv mutein
B36: LE32Q (scFv)
scFv: B1 scFv with E32Q, T93Y
notes: AS170036 VL1VH1 scFv mutein
B37: LE32A (scFv)
scFv: B1 scFv with E32A, T93Y
notes: AS170036 VL1VH1 scFv mutein
B38: HD102E (scFv)
scFv: B1 scFv with T93Y, D228E
notes: AS170036 VL1VH1 scFv mutein
B39: HG56A (scFv)
scFv: B1 scFv with T93Y, G182A
notes: AS170036 VL1VH1 scFv mutein
B40: HG56N (scFv)
scFv: B1 scFv with T93Y, G182N
notes: AS170036 VL1VH1 scFv mutein; also called AS170036 VL1VH1-VHG56N
B41: HG56M (scFv)
scFv: B1 scFv with T93Y, G182M
notes: AS170036 VL1VH1 scFv mutein
B42: HG56F (scFv)
scFv: B1 scFv with T93Y, G182F
notes: AS170036 VL1VH1 scFv mutein; also called AS170036 VL1VH1-VHG56F
B43: HF101Y (scFv)
scFv: B1 scFv with T93Y, F227Y
notes: AS170036 VL1VH1 scFv mutein
B44: HG56E (scFv)
scFv: B1 scFv with T93Y, G182E
notes: AS170036 VL1VH1 scFv mutein
B45: HG56H (scFv)
scFv: B1 scFv with T93Y, G182H
notes: AS170036 VL1VH1 scFv mutein
B46: HG56Q (scFv)
scFv: B1 scFv with T93Y, G182Q
notes: AS170036 VL1VH1 scFv mutein
B47: HG56K (scFv)
scFv: B1 scFv with T93Y, G182K
notes: AS170036 VL1VH1 scFv mutein
B48: HF101W (scFv)
scFv: B1 scFv with T93Y, F227W
notes: AS170036 VL1VH1 scFv mutein
B49: HG56L (scFv)
scFv: B1 scFv with T93Y, G182L
notes: AS170036 VL1VH1 scFv mutein
B50: HG56D (scFv)
scFv: B1 scFv with T93Y, G182D
notes: AS170036 VL1VH1 scFv mutein

What follows are binders tested against T1, AFP158/HLA-A*02:01 complex (human) (assay: SPR, KD ratio to AS170036 VL1VH1;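 also: crude scFv captured on a sensor chip, peptide–HLA complex passed over at several concentrations, association then buffer dissociation, KD derived from on- and off-rates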).
T1 construct: flowed over the chip in SPR; also called AFP158 pro
Procedure: (§1) The experiment was carried out as follows. The crude scFv protein were captured onto the sensorchip. Different concentrations (320, 160, 40 nM) of AFP158/HLA-A*02:01 complex flowed over the sensorchip surface, and were allowed to bind the antibody fragment for 100 s followed by injection of the running buffer to allow dissociation of the complex. On-rate (kd) and off-rate (kd) were calculated based on association and dissociation curve, and were used to estimate the equilibrium dissociation constant (KD).
B1 gave an Affinity increase of 0.3 fold. For B2, the Affinity increase was 0.3 fold. For B3, the Affinity increase was 0.4 fold. B4 gave an Affinity increase of 0.3 fold. B5 gave an Affinity increase of 0.2 fold. With B6 the Affinity increase was 0.2 fold. B7 gave an Affinity increase of 0.1 fold. Binder B8 has an Affinity increase of 0.4 fold. B9 was tested, and the Affinity increase was 0.4 fold. B10 showed an Affinity increase of 0.4 fold. Work on B11 yielded an Affinity increase of 0.3 fold. Binder B12 has an Affinity increase of 0.3 fold. B13 showed an Affinity increase of 0.3 fold. Binder B14 has an Affinity increase of 0.4 fold. In the case of B15, the Affinity increase is reported as 0.4 fold. B16 gave an Affinity increase of 0.2 fold. For B17, the Affinity increase was 0.2 fold. B18 gave an Affinity increase of 0.4 fold. B19 gave an Affinity increase of 0.4 fold. Work on B20 yielded an Affinity increase of 0.1 fold. B21 showed an Affinity increase of 0.3 fold. B22 showed an Affinity increase of 0.3 fold. In the case of B23, the Affinity increase is reported as 0.4 fold. With B24 the Affinity increase was 0.2 fold. Binder B25 has an Affinity increase of 0.3 fold. B26 gave an Affinity increase of 0.4 fold. B27 showed an Affinity increase of 0.3 fold. B28 gave an Affinity increase of 0.1 fold. B29 gave an Affinity increase of 0.2 fold. For B30, the Affinity increase was 0.2 fold. B31 gave an Affinity increase of 0.2 fold. Binder B32 has an Affinity increase of 0.4 fold. For B33, the Affinity increase was 0.3 fold. Binder B34 has an Affinity increase of 0.1 fold. B35 showed an Affinity increase of 0.2 fold. B36 gave an Affinity increase of 0.4 fold. In the case of B37, the Affinity increase is reported as 0.3 fold.

Biological target: T1, AFP158/HLA-A*02:01 complex
Assay: SPR, KD ratio to AS170036 VL1VH1
Remark: another data set of the same source
Procedure: as §1
Binder B38 has an Affinity increase of 1.2 fold. B39 showed an Affinity increase of 1.4 fold. B40 gave an Affinity increase of 2.5 fold. In the case of B41, the Affinity increase is reported as 1.7 fold. In the case of B42, the Affinity increase is reported as 2.3 fold. For B43, the Affinity increase was 1.1 fold. B44 showed an Affinity increase of 1 fold. Work on B45 yielded an Affinity increase of 1.5 fold. With B46 the Affinity increase was 1 fold. For B47, the Affinity increase was 0.7 fold. B48 showed an Affinity increase of 0.8 fold. B49 showed an Affinity increase of 0.8 fold. In the case of B50, the Affinity increase is reported as 1 fold.

The binders below were run against T1, AFP158/HLA-A*02:01 complex (assay: SPR, scFv captured, pMHC in flow;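 also: complex injected at several concentrations over crude scFv, association then running-buffer dissociation, KD estimated from kinetic on- and off-rate constants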).
Procedure: as §1
B1 was tested, and the Kd was 840 nM. Work on B2 yielded a Kd of 860 nM. In the case of B3, the Kd is reported as 570 nM. With B4 the Kd was 770 nM. Work on B5 yielded a Kd of 1400 nM. For B6, the Kd was 1400 nM. B7 gave a Kd of 2200 nM. For B8, the Kd was 590 nM. B9 showed a Kd of 620 nM. B10 showed a Kd of 570 nM. B11 showed a Kd of 930 nM. B12 gave a Kd of 780 nM. Work on B13 yielded a Kd of 740 nM. B14 was tested, and the Kd was 640 nM. In the case of B15, the Kd is reported as 690 nM. In the case of B16, the Kd is reported as 1200 nM. B17 was tested, and the Kd was 1100 nM. With B18 the Kd was 580 nM. B19 showed a Kd of 650 nM. Work on B20 yielded a Kd of 1700 nM. In the case of B21, the Kd is reported as 790 nM. For B22, the Kd was 740 nM. B23 showed a Kd of 590 nM. B24 was tested, and the Kd was 1100 nM. B25 gave a Kd of 980 nM. In the case of B26, the Kd is reported as 690 nM. Binder B27 has a Kd of 730 nM. In the case of B28, the Kd is reported as 1700 nM. Binder B29 has a Kd of 1000 nM. B30 showed a Kd of 1100 nM. Binder B31 has a Kd of 1400 nM. With B32 the Kd was 660 nM. With B33 the Kd was 830 nM. With B34 the Kd was 1800 nM. Work on B35 yielded a Kd of 1400 nM. Work on B36 yielded a Kd of 570 nM. With B37 the Kd was 700 nM.

Biological target: T1, AFP158/HLA-A*02:01 complex
Assay: SPR, scFv captured, pMHC in flow
Remark: another data set of the same source
Procedure: as §1
In the case of B38, the Kd is reported as 190 nM. With B39 the Kd was 160 nM. With B40 the Kd was 92 nM. With B41 the Kd was 130 nM. Binder B42 has a Kd of 98 nM. With B43 the Kd was 210 nM. Work on B44 yielded a Kd of 240 nM. With B45 the Kd was 150 nM. For B46, the Kd was 240 nM. B47 was tested, and the Kd was 350 nM. For B48, the Kd was 300 nM. For B49, the Kd was 290 nM. In the case of B50, the Kd is reported as 230 nM.
